Source: US20110165265A1, “TRAIL VARIANTS FOR TREATING CANCER” (FUNDACIÓ GENÒMICA (CRG), priority 2007, published 2011)
Where a chain is given by its changes, count along the chain named. In names and notes the source's numbering stands.

B1: D269H: rhTRAIL carrying mutation D269H; DR5-selective TRAIL variant (protein)
chain: MVRERGPQRVAAHITGTRGRSNTLSSPNSKNEKALGRKINSWESSRSGHSFLSNLHLRNGELVIHEKGFYYIYSQTYFRFQEEIKENTKNDKQMVQYIYKYTSYPDPILLMKSARNSCWSKDAEYGLYSIYQGGIFELKENDRIFVSVTNEHLIDMHHEASFFGAFLVG
B2: M1: rhTRAIL carrying mutations D269H, E194I and I196S (protein, UniProt P50591 1-281, looked up, variant D269H E194I I196S)
Tumor necrosis factor ligand …: MAMMEVQGGPSLGQTCVLIVIFTVLLQSLCVAVTYVYFTNELKQMQDKYSKSGIACFLKEDDSYWDPNDEESMNSPCWQVKWQLRQLVRKMILRTSEETISTVQEKQQNISPLVRERGPQRVAAHITGTRGRSNTLSSPNSKNEKALGRKINSWESSRSGHSFLSNLHLRNGELVIHEKGFYYIYSQTYFRFQIESKENTKNDKQMVQYIYKYTSYPDPILLMKSARNSCWSKDAEYGLYSIYQGGIFELKENDRIFVSVTNEHLIDMHHEASFFGAFLVG
B3: D269HT214R: TRAIL variant containing mutations D269H and T214R (protein, UniProt P50591 1-281, looked up, variant D269H T214R)
Tumor necrosis factor ligand …: B2 Tumor necrosis factor ligand … with I194E, S196I, T214R

Key:
[1] = test system: human umbilical vein endothelial cells (HUVEC); assay: Viability of HUVEC; format: cell-based; conditions: 50-500 ng/ml, 24 h, MTT
Procedure: (§1) Human dermal fibroblasts were grown in low glucose DMEM (Sigma) supplemented with 10% fetal calf serum, 50 U/ml penicillin and […] streptomycin; human umbilical vein endothelial cells (HUVEC, PromoCell) were cultured in Endothelial Cell Growth Medium with SupplementMix (PromoCell). Fibroblasts and HUVEC cells were seeded at 1.3×10^5 cells/ml 24 h before treatment with increasing concentrations of TRAIL and DR5-selective variants, D269H and D269HE195R (50-500 ng/ml) for 24 h and cell viability was measured using MTT assay, wherein 200 μg/ml MTT (3-(4,5-dimethylthiazo1-2-yl)-2,5-diphenyl-tetrazolium bromide) was added to control and treated cells and incubated for 3 h at 37° C. The reaction was stopped and the purple formazan precipitate formed was dissolved using dimethyl sulfoxide (DMSO) and the colour intensity was measured at 550 nm on a Wallac multilabel counter. The control value corresponding to untreated cells was taken as 100% and the viability of treated samples was expressed as a percentage of the control. (FIG. 15).

DcR2 = target: T1, DcR2 (Homo sapiens, UniProt Q9UBN6); assay: SPR receptor binding assay, immobilized DcR2-Ig; conditions: 0.1-250 nM ligand
T1 construct: soluble, recombinant DcR1-Ig (sDcR1) and DcR2-Ig (sDcR2); purchased R&D Systems
T1 sequence (Q9UBN6 56-211 limits assumed): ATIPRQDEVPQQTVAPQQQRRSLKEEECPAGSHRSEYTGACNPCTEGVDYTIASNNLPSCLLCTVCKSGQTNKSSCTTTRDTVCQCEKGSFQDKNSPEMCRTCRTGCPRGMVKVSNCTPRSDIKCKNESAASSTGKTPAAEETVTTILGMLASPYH
Procedure: (§2) The response data (in response units) as a function of TRAIL concentration were fitted using a four parameter equation to give an apparent pre-steady state affinity constant.
(§3) Binding experiments were performed at 37° C. using a surface plasmon resonance-based biosensor (Biacore 3000, Biacore AB, Uppsala, Sweden) as previously described^10. In short, DcR1-Ig and DcR2-Ig receptor chimeras (R&D Systems) were captured at a 35 μl/min flow rate using a protein A (Sigma) modified CM5 sensor chip (Biacore). Receptor chimeras were captured at a level of ˜500-800 response units (RU). […] Binding of ligands to the receptors was monitored in real-time. Between injections the protein A sensor surface was regenerated using a 30s pulse of 0.1 M glycine 0.5 M NaCl pH 3. Due to the very slow dissociation of the TRAIL-receptor complex, only pre-steady state binding data could be obtained. In order to obtain data that represent proper high-affinity complex formation, the response at each concentration was recorded 30 sec after the end of the injection. The response data (in response units) as a function of TRAIL concentration were fitted using a four parameter equation to give an apparent pre-steady state affinity constant.
(§4) Affinity of the ligands was assessed by measuring receptor binding in a concentration range of 0.1-250 nM.

SW948 cells = assay: Cell survival / sensitivity of SW948; format: cell-based
DcR1 = target: T2, DcR1 (Homo sapiens, UniProt O14798); assay: SPR receptor binding assay, immobilized DcR1-Ig; conditions: 0.1-250 nM ligand
T2 construct: soluble, recombinant DcR1-Ig (sDcR1) and DcR2-Ig (sDcR2); purchased R&D Systems
T2 sequence (O14798 26-236 limits assumed): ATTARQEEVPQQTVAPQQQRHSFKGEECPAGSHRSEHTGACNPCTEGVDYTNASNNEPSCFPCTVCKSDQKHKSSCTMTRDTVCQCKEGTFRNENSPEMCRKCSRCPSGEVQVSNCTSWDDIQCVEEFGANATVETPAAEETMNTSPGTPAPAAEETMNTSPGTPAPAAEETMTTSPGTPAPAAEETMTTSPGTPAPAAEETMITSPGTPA
Procedure: as §2, §3, §4

DR4 = target: T3, DR4 (Homo sapiens, UniProt O00220); conditions: earlier work referred to; cited from earlier work
T3 construct: the more commonly used dimeric TRAIL-receptor-IgG Fc chimeric constructs
T3 sequence (O00220 24-239 limits assumed): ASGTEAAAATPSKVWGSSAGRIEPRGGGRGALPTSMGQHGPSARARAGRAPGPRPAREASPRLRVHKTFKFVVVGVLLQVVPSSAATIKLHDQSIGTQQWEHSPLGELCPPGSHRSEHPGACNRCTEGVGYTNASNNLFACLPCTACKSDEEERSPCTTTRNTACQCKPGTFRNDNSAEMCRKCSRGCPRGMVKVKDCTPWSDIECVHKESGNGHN

DR5 = target: T4, DR5 (Homo sapiens, UniProt O14763); conditions: earlier work referred to; cited from earlier work
T4 construct: Effect of soluble recombinant DR5-Ig (sDR5) on apoptosis induction

Colo205 cells [2] = assay: Colo205 apoptosis after pre-incubation of ligand with soluble receptor-Ig; format: cell-based, human; conditions: 10 ng/ml ligand
Procedure: (A) Effect of soluble recombinant DcR1-Ig (sDcR1) on apoptosis induction by TRAIL and DR5-selective variants. […] All graphs are representatives of two independent repeats. (D) Neutralizing antibodies against DcR1 and DcR2 can augment wtTRAIL- but not DR5-variant induced cell death. […] Induction of apoptosis was measured 3 h post-treatment using Annexin V assay. […] The graphs show the average±SEM of three independent experiments.
Induction of cell death was assessed by Annexin V assay 3 h after treatment (FIG. 14), as described above. […] (FIG. 14C). This confirms that the observed differences in blocking efficacy are due to reduced ability of the decoy receptors to bind and inhibit D269H and D269HE195R.

A2780 cells [3] = assay: Annexin V apoptosis assay in A2780; format: cell-based, human; conditions: A2780 ovarian cancer cells
ML-1 cells = assay: Cytotoxicity in ML-1 cells; format: cell-based
Procedure: (§5) Colo205 and ML-1 cells were then treated with increasing concentrations of TRAIL or the DR5-specific variants D269H, D269HE195R, and D269H/T214R, and their cytotoxic potential was measured with a 3-(4,5-dimethylthiazol-2-yl)-2,5-diphenyl tetrazolium bromide (MTT) assay.

Human dermal fibroblasts = assay: MTT viability of human dermal fibroblasts; format: cell-based; conditions: 50-500 ng/ml, 24 h
Procedure: as §1

LoVo cells = assay: Cell survival / sensitivity of LoVo; format: cell-based
Source text: C) Effect of increasing concentration of 5-Flurouracil on Lovo cells.

HeLa cells = assay: Cell survival / sensitivity of HeLa; format: cell-based
Procedure: (B) Effect of increasing of Bortezomib on cell viability. Hela cells appear to tolerate higher concentration of Bortezomib compared to Caski and SIHA cells (C) Combination therapy with 10 nM Bortezomib incubated for 24 h lead to further decreases in cell viability in cells treated with both TRAIL and two of the DR5 mutants (D) Radiation therapy in combination with TRAIL or the DR5 mutants further decrease cell viability in HELA cells. The DR5 mutant show decrease cell viability at lower concentration of ligand compared to TRAIL.

Colo205 cells [4] = assay: Cell survival / sensitivity of Colo205; format: cell-based; conditions: Colo205
Procedure: (B) Effect of increasing concentrations of Aspirin on cell viability. (C) Effect of increasing concentrations of 5-Flurouracil on cell viability. (D) Combination therapy with 5 mM Aspirin pre-incubated for 24 h lead to further decreases in cell viability in cells treated with both TRAIL and two of the DR5 mutants. (E) 30 minute incubation of DR5 mutants, were sufficient decrease cell viability which was further augmented when cells were pre-incubated for 24 h with Aspirin. The shorter incubation period lead to a decrease potency of TRAIL alone or in combination with Aspirin. […] (G) 30 min incubation of the DR5 mutant was sufficient to decrease cell viability which was not enhanced by 5-Flurouracil, and once again the decease potency of TRAIL is seen. Proteins are indicated as follows: TRAIL stands for rhTRAIL WT; D269H stands for rhTRAIL carrying mutation D269H; E195R stands for rhTRAIL carrying mutations D269H and E195R; and M1 stands for rhTRAIL carrying mutations D269H, E194I and I196S.
TRAIL-induced cell death as a function of concentration was measured with the MTS assay.

Caski cells = assay: Cell survival / sensitivity of Caski; format: cell-based
A2780 cells [5] = assay: MTT cytotoxicity in A2780 (Example 6); format: cell-based; conditions: A2780 (FIG. 8E)
Colo205 cells [6] = assay: MTT cytotoxicity and DR4/DR5 neutralizing antibodies in Colo205; format: cell-based, human; conditions: Colo205, at a lower concentration (FIG. 8C)
Procedure: To assess the biological activity related to DR5 binding, various cancer cells were used. Colo205 colon carcinoma cells and ML-1 […] myeloid leukemia cells express all four TRAIL receptors on the cell surface, as shown by using FACS analysis (FIG. 7), and are sensitive to TRAIL-induced apoptosis. To test the involvement of DR4 versus DR5 in TRAIL-induced cell death, Colo205 cells were treated with neutralizing anti-DR4 or anti-DR5 antibody for 1 h before the addition of TRAIL. […] In contrast, the DR4 pathway is the major mediator of TRAIL-induced apoptosis in ML-1 cells (FIG. 8A.) To examine whether the DR5-specific TRAIL variants induce cell death in Colo205 cells by way of the DR5 receptor, 1 μg/ml neutralizing anti-DR4 or -DR5 antibodies were administered 1 h before ligand treatment.
as §5

Molecule | cell viability [1] | binding toward DcR2 compared to wtTRAIL (DcR2) | cell viability, single agent (SW948 cells) | binding towards DcR1, reduction compared to wtTRAIL (DcR1) | binding to DR4 (DR4) | affinity for the DR5 receptor (DR5) | effect of pre-incubation with sDcR2 on apoptosis induction (Colo205 cells [2]) | effect of pre-incubation with sDcR1 on pro-apoptotic activity (Colo205 cells [2]; sDcR1 up to 2 μg/ml) | increase in apoptosis / efficiency compared to wtTRAIL (A2780 cells [3]) | cell death induction (ML-1 cells) | cell viability (Human dermal fibroblasts) | cell viability, single agent (LoVo cells) | cell viability, single agent (HeLa cells) | cell viability, single agent (Colo205 cells [4]) | cell viability, single agent (Caski cells) | cytotoxic activity compared with wild-type TRAIL (A2780 cells [5]) | increase of apoptosis rate compared to wtTRAIL (Colo205 cells [6])
B1 | did not result in a decrease in cell viability | reduced | decreased cell viability | approximately 20 fold | highly reduced | increased | only at a two fold higher concentration than for wtTRAIL | failed to reduce | 3-4 fold | only TRAIL was able to induce cell death | did not result in a decrease in cell viability | equal decrease in cell viability | comparable | significantly less cell viability than TRAIL | comparable | significantly increased | 
B2 |  |  | decreased cell viability |  |  |  |  |  |  |  |  | equal decrease in cell viability | comparable | significantly less cell viability than TRAIL | comparable |  | 
B3 |  |  |  |  |  |  |  |  | 2 fold | only TRAIL was able to induce cell death |  |  |  |  |  | significantly increased | 1.5 fold
